Experimental data: patent publication US20230087785A1, “Leucine-Rich Repeat Kinase 2 Allosteric Modulators” (VIB VZW, priority 2020, published 2023)

Target: T1, full-length LRRK2 (Homo sapiens, UniProt Q5S007, M2397T/R50H)
T1 construct: Full-length human LRRK2 was expressed and purified based on previously developed protocols; SF tag (FLAG-tag + Twin-Strep-tag); made in house; host or cells: HEK 293T
Experiment: Microscale thermophoresis (MST) affinity measurement
Type: binding
Details: m-TAMRA-labeled Nb titrated with LRRK2; 500 μM GDP
From the text: Binding isotherms are shown, obtained by titrating increasing concentrations of LRRK2 to fluorescently (m-TAMRA)-labeled Nbs and measuring the MST signals. Nbs are classified into four functional groups as defined in FIG. 2d with (FIG. 13A) group 1 Nbs, (FIG. 13B) group 2 Nbs, (FIG. 13C) group 3 Nbs, and (FIG. 13D) group 4 Nbs. In panel (FIG. 13E) two negative controls are shown, where LRRK2 was either titrated to free m-TAMRA or to a m-TAMRA-labeled irrelevant Nb. All measurements were performed in presence of 500 μM GDP, except for Nb42 where GTPγS was used. The corresponding equilibrium dissociation constants (Kd±standard error) obtained by fitting with a quadratic binding equation are given (each data point is the average of three independent measurements with the error bars representing the standard deviation; NB=no MST binding signal detectable).
To determine the binding affinity (dissociation constant KD) of the ten Nbs for LRRK2, two methods were used in parallel: microscale thermophoresis (MST) and bio-layer interferometry (BLI). […] For the BLI experiment LRRK2 was first trapped on a streptavidin-coated biosensor using biotinylated Nb40 as trapping agent (except to assess binding of Nb40, where Nb42 was used as trapping agent), after which binding of all Nbs to LRRK2 was determined. […]

T1 sequence (Q5S007 whole entry R50H/M2397T): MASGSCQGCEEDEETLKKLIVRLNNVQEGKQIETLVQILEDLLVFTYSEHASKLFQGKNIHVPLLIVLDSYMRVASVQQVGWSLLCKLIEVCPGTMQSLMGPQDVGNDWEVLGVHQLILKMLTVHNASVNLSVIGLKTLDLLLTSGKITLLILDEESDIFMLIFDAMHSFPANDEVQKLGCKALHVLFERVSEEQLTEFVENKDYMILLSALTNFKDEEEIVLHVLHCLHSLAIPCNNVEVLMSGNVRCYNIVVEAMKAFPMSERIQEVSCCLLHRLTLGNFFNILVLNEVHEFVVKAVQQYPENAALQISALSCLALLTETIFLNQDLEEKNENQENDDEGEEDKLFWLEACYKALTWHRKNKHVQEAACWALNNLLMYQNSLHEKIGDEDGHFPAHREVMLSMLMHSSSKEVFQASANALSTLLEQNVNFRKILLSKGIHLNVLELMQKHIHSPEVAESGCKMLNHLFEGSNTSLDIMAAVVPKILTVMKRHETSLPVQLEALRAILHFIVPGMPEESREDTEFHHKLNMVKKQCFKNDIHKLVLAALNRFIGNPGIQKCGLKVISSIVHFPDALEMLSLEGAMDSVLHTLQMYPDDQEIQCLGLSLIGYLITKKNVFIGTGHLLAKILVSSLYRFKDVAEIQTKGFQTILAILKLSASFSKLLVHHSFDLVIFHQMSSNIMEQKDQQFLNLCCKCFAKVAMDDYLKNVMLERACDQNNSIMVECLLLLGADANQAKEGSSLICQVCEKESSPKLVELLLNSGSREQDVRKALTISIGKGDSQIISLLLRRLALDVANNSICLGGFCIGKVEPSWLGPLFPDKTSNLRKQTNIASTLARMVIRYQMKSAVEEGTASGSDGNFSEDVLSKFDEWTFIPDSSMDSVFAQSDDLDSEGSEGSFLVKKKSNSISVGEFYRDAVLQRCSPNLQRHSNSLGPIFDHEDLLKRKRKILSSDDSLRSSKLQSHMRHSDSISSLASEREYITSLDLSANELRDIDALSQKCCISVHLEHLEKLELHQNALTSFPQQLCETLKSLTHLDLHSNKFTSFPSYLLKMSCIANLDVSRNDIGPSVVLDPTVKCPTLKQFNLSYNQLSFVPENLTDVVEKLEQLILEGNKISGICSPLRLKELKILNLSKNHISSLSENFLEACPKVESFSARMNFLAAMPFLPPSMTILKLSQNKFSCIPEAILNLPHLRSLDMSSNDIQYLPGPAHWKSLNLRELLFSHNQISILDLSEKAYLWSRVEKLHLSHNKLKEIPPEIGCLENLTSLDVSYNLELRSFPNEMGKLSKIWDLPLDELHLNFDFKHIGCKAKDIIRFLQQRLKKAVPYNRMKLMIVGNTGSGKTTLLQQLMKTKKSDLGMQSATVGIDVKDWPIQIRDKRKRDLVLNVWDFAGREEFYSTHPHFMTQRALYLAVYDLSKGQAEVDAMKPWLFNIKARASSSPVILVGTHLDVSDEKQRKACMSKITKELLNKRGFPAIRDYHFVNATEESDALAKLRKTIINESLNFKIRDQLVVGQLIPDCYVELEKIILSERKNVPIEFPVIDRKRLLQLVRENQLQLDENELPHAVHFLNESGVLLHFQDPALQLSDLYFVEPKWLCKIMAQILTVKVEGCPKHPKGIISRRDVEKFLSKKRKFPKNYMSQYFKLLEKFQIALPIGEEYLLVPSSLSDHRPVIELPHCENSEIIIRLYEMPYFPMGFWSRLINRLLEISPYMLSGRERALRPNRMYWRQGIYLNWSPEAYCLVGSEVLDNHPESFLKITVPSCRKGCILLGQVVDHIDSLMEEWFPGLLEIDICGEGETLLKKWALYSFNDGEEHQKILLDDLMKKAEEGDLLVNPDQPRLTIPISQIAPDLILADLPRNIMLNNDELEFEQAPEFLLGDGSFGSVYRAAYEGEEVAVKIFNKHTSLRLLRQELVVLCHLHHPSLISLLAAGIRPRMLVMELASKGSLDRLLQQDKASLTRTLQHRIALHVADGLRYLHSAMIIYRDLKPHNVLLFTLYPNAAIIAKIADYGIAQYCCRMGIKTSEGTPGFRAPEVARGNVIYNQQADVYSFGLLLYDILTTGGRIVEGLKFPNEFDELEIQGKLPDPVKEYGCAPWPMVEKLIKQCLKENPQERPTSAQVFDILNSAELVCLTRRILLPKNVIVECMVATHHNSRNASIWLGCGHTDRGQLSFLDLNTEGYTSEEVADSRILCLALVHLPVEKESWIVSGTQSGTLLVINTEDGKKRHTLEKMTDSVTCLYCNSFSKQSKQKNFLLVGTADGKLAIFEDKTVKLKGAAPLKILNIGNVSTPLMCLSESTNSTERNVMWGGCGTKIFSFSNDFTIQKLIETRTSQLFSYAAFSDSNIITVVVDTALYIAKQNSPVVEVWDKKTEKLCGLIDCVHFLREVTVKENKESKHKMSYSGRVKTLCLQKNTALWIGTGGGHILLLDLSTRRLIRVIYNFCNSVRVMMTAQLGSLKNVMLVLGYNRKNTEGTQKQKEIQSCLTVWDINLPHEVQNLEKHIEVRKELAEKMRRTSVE

B1: Nb23: LRRK2-specific Nanobody, SEQ ID NO: 3 (protein)
VHH: MAQVQLVESGGGLVQAGGSLRLSCAASGRTFSRYTMGWFRQAPGKDREFVARITTSGAVTTYADSAKGRFTISRDNAKNTVYLQMNTLKPEDTAVYYCAAGQGQLSSQSRFVDYWGQGTQVTVSS
modifications: Nanobody CA13612
KD (nM)-MST: did not generate a change in thermophoresis behavior
